From patent US20200181261A1 (Bayer, published 2020)

Experiments:
Experiment in all cases: FACS, transfected HeLa cells
[1] = molecular target: T1, human CEACAM6, full-length, on cells (human, UniProt P40199 35-320)
T1 construct: used both for transfected HeLa cells and for tumor cell lines that express CEACAM6 endogenously; also called TPP-4639; HeLa human CEACAM6
T1 sequence: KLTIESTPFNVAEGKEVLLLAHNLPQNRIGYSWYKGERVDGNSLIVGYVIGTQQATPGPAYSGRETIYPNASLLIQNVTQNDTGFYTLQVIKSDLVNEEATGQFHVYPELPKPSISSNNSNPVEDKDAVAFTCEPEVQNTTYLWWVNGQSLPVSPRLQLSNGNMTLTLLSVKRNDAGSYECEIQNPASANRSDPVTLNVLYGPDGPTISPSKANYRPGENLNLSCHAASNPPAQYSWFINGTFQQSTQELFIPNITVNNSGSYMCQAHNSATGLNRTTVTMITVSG
Protocol: (§1) For FACS experiments HeLa wild type cells were cultured in RPMI-1640, 10% FCS, while CEACAM-receptor transfected HeLa cells received in addition 0.5% Gentamycin (stock 10 mg/ml, Fa. PAA) and 200 μg/ml Hygromycin B (stock 50 mg/ml, Invitrogen). Cells were washed 3 times with PBS w/o Ca²⁺/Mg²⁺ and were detached from the culture plate non-enzymatically with EDTA dissociation buffer (Gibco). Cells were washed in cold FACS buffer (PBS w/o Ca²⁺/Mg²⁺ and heat-inactivated 3% FCS) and were counted using a countess machine (Invitrogen). 10⁵ cells per well were plated and incubated with the respective primary antibody (5 μg/ml) for 1 h at 4° C. on a plate shaker. […] After 2 times washing the cells were resuspended in 100 μl FACS buffer and were analysed on a FACS Canto II machine (Beckton Dickinson) or a FACS Array (Beckton Dickinson).
(§2) For EC₅₀ analysis, the primary antibodies were used at increasing concentrations in a range from 0.1 nM to 100 nM. Half maximal binding values (EC₅₀) were determined by plotting the median fluorescence intensity signal against the concentration (logarithmic scale). Curve fitting of data was performed using the Graph Pad prism analysis software.

[2] = molecular target: T2, Macaca fascicularis (cynomolgus) CEACAM6, full-length, on transfected HeLa cells (Macaca fascicularis, GPI anchor at the C-terminus on the cell surface, not carried by the letters)
T2 construct: also called TPP-4189; HeLa Cynomolgus CEACAM6
T2 chain: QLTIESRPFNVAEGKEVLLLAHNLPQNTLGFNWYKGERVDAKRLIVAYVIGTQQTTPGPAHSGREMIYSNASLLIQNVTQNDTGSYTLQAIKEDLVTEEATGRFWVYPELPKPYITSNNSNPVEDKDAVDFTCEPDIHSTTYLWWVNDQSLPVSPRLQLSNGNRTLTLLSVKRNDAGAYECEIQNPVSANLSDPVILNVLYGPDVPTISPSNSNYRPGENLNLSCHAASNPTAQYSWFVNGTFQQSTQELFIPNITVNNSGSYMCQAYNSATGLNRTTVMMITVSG
Protocol: as §1, §2

[3] = molecular target: T3, human CEACAM3, full-length, on transfected HeLa cells (human, UniProt P40198 35-252)
T3 construct: also called TPP-4187; HeLa human CEACAM3
T3 sequence: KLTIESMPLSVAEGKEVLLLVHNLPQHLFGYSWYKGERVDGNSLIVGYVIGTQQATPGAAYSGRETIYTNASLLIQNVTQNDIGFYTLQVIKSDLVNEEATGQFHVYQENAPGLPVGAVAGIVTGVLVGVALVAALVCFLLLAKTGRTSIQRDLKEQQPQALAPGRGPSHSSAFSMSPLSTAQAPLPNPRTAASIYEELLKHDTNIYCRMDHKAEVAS
Protocol: as §1, §2

[4] = molecular target: T4, human CEACAM5, full-length, on transfected HeLa cells (human, UniProt P06731 35-685, GPI anchor at the C-terminus on the cell surface, not carried by the letters)
T4 construct: also called TPP-4188; HeLa human CEACAM5
T4 sequence: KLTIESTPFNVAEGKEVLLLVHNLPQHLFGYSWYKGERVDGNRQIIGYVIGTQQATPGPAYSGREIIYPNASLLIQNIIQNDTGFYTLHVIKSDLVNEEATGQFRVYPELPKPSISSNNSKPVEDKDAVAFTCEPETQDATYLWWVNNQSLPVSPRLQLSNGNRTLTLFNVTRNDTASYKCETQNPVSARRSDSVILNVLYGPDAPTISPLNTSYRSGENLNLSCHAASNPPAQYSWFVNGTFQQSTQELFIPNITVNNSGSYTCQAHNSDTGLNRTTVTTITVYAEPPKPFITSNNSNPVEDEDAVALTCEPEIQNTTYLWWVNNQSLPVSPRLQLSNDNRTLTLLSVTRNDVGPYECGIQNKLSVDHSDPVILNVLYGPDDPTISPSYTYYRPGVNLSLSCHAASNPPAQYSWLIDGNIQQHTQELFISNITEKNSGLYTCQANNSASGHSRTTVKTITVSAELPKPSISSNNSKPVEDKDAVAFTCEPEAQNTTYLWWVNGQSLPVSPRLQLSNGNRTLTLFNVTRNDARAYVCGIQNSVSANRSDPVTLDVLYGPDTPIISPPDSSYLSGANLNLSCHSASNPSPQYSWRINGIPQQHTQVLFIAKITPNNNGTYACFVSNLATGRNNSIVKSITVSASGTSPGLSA
Protocol: as §1, §2

[5] = molecular target: T5, human CEACAM8, full-length, on transfected HeLa cells (human, UniProt P31997 35-320)
T5 construct: also called TPP-4190; HeLa human CEACAM8
T5 sequence: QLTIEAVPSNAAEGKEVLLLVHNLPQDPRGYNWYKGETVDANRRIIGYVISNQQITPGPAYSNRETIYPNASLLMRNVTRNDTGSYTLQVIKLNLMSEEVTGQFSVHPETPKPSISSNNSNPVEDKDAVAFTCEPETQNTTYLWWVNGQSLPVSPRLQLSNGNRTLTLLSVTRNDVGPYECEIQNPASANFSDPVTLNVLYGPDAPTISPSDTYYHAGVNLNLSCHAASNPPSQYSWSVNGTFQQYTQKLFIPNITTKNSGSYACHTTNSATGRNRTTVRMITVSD
Protocol: as §1, §2

B1: TPP-3714 (antibody, human IgG2, kappa)
heavy: QVTLRESGPALVKPTQTLTLTCTFSGFSLSTYGIGVGWIRQPPGKALEWLAHIWWNDNKYYSTSLKTRLTISKDTSKNQVVLTMTNMDPVDTATYYCARISLPYFDYWGQGTLVTVSSASTKGPSVFPLAPCSRSTSESTAALGCLVKDYFPEPVTVSWNSGALTSGVHTFPAVLQSSGLYSLSSVVTVPSSNFGTQTYTCNVDHKPSNTKVDKTVERKCCVECPPCPAPPVAGPSVFLFPPKPKDTLMISRTPEVTCVVVDVSHEDPEVQFNWYVDGVEVHNAKTKPREEQFNSTFRVVSVLTVVHQDWLNGKEYKCKVSNKGLPAPIEKTISKTKGQPREPQVYTLPPSREEMTKNQVSLTCLVKGFYPSDIAVEWESNGQPENNYKTTPPMLDSDGSFFLYSKLTVDKSRWQQGNVFSCSVMHEALHNHYTQKSLSLSPG
light: DIQLTQSPSFLSASVGDRVTITCKASQNVGTAVAWYQQKPGKAPKLLIYSASNRYTGVPSRFSGSGSGTEFTLTISSLQPEDFATYYCQQYSSYPLTFGGGTKVEIKRTVAAPSVFIFPPSDEQLKSGTASVVCLLNNFYPREAKVQWKVDNALQSGNSQESVTEQDSKDSTYSLSSTLTLSKADYEKHKVYACEVTHQGLSSPVTKSFNRGEC
notes: humanized from TPP-2971, human IgG2; also called TPP-2971HU2-hIgG2Kappa
With B1 the EC50 [1] was 1 nM, the EC50 [2] was 1 nM and the binding result [3] was “no binding (tested: 5 µg/ml)”. B1: no binding (tested: 5 µg/ml) [4]; no binding (tested: 5 µg/ml) [5].

B2: TPP-3187 (antibody, mouse IgG1, V domains shown)
VH: QVTLKESGPGILQPSQTLSLTCSFSGFSLTTYGIGVGWIRQPSGKGLEWLAHIWWNDNKYYNTALKSRLTISKDTSNNQVFLKIASVDTADTATYYCARISLPYFDYWGQGTTLTVSS
VL: DIVMTQSQKFMSTSVGDRVSITCKASQNVGTAVAWYQQKPGQSPKLLIYSASNRYTGVPDRFTGSGSGTDFTLTISNMQSEDLADYFCQQYNNYPLTFGAGTKLELK
notes: murine hybridoma antibody, mouse IgG1; also called 792.15C4F4
With B2 the EC50 [1] was 0.35 nM, the FACS median fluorescence [1] was 100 to 1000 medianfluorescence and the EC50 [2] was 4 nM. For the same binder, the FACS median fluorescence [2] was 100 to 1000 medianfluorescence, the binding result [3] was “no binding (tested: 5 µg/ml)” and the binding result [4] was “no binding (tested: 5 µg/ml)”. B2: no binding (tested: 5 µg/ml) [5].

B3: TPP-3323 (antibody, human IgG2, kappa, V domains shown)
VH: QVTLKESGPGILQPSQTLSLTCSFSGFSLTTYGIGVGWIRQPSGKGLEWLAHIWWNDNKYYNTALKSRLTISKDTSNNQVFLKIASVDTADTATYYCARISLPYFDYWGQGTTLTVSS
VL: DIVMTQSQKFMSTSVGDRVSITCKASQNVGTAVAWYQQKPGQSPKLLIYSASNRYTGVPDRFTGSGSGTDFTLTISNMQSEDLADYFCQQYNNYPLTFGAGTKLELKR
notes: human IgG2 chimera; also called TPP-3187X1-hIgG2; hIgG2 chimera of TPP-3187
B3 showed an EC50 [1] of 0.6 nM, an FACS median fluorescence [1] of 10 to 100 medianfluorescence and an EC50 [2] of 0.8 nM. The FACS median fluorescence [2] was 100 to 1000 medianfluorescence, the binding result [3] was “no binding (tested: 5 µg/ml)” and the binding result [4] was “no binding (tested: 5 µg/ml)”. B3: no binding (tested: 5 µg/ml) [5].

B4: TPP-3308 (antibody, human IgG2, kappa, V domains shown)
VH: QVTLKESGPGILQPSQTLSLTCSFSGFSLSTYGIGVGWIRQPSGKDLEWLAHIWWNDNKYYNTALKSRLTISKDTSNNQVFLKIASVDTADTATYYCARISLPYFDYWGQGTTLTVSS
VL: DIVMTQSQKFMSTSVGDRVSITCKASQNVGTAVAWYQQKPGQSPKLLIYSASNRYTGVPDRFTGSGSGTDFTLTISNMQSEDLADYFCQQYSSYPLTFGAGTKLELKR
notes: human IgG2 chimera; also called TPP-2971X1-hIgG2Kappa; hIgG2 chimera of TPP-2971
With B4 the EC50 [1] was 0.45 nM, the FACS median fluorescence [1] was 10 to 100 medianfluorescence and the EC50 [2] was 0.6 nM. The FACS median fluorescence [2] was 100 to 1000 medianfluorescence, the binding result [3] was “no binding (tested: 5 µg/ml)” and the binding result [4] was “no binding (tested: 5 µg/ml)”. B4: no binding (tested: 5 µg/ml) [5].
